Data as given in the PETadex activity labels (doi:10.1128/aem.02773-17).

B1: unnamed (protein)
chain: MNVLTKCKLALGIIAIFFSLPSFAVPCSDCSNGFERGQVPRVDQLESSRGPYSVKTINVSRLARGFGGGTIHYSTESGGQQGIIAVVPGYVSLEGSIKWWGPRLASWGFTVITIDTNTIYDQPDSRASQLSAAIDYVIDKGNDRSSPIYGLVDPNRVGVIGWSMGGGGSLKLATDRKIDAVIPQAPWYLGLSRFSSITSPTMIIACQADVVAPVSVHASRFYNQIPGTTPKAYFEIALGSHFCANTGYPSEDILGRNGVAWMKRFIDKDERYTQFLCGQNFDSSLRVSEYRDNCSYY
B2: unnamed (protein)
chain: MPITARNTLASLLLASSALLLSGTAFAANPPGGDPDPGCQTDCNYQRGPDPTDAYLEAASGPYTVSTIRVSSLVPGFGGGTIHYPTNAGGGKMAGIVVIPGYLSFESSIEWWGPRLASHGFVVMTIDTNTIYDQPSQRRDQIEAALQYLVNQSNSSSSPISGMVDSSRLAAVGWSMGGGGTLQLAADGGIKAAIALAPWNSSINDFNRIQVPTLIFACQLDAIAPVALHASPFYNRIPNTTPKAFFEMTGGDHWCANGGNIYSALLGKYGVSWMKLHLDQDTRYAPFLCGPNHAAQTLISEYRGNCPY

Tests used:
[1] = substrate: pNPB; experiment: Proxy for plastic degradation [Relative activity]
[2] = substrate: PET; experiment: Proxy for plastic degradation [Released monomer concentration (HPLC/LC-MS) (terephthalic acid)]; conditions: pH 8

Protein | Proxy for plastic degradation ([1]; pH 3) [%] | Proxy for plastic degradation ([1]; pH 4) [%] | Proxy for plastic degradation ([1]; pH 5) [%] | Proxy for plastic degradation ([1]; pH 6) [%] | Proxy for plastic degradation ([1]; pH 7, 17 °C) [%] | Proxy for plastic degradation ([1]; pH 7, 22 °C) [%] | Proxy for plastic degradation ([1]; pH 7, 28 °C) [%] | Proxy for plastic degradation ([1]; pH 7, 37 °C) [%] | Proxy for plastic degradation ([1]; pH 7, 42 °C) [%] | Proxy for plastic degradation ([1]; pH 7, 55 °C) [%] | Proxy for plastic degradation ([1]; pH 7, 60 °C) [%] | Proxy for plastic degradation ([1]; pH 7, 70 °C) [%] | Proxy for plastic degradation ([1]; pH 7, 80 °C) [%] | Proxy for plastic degradation ([1]; pH 7, 90 °C) [%] | Proxy for plastic degradation ([1]; pH 8) [%] | Proxy for plastic degradation ([1]; pH 9.2) [%] | Proxy for plastic degradation ([1]; pH 10.2) [%] | Proxy for plastic degradation [2] [µM]
B1 | 0 | 0 | 0 | 11 | 60 | 60 | 62 | 72 | 82 | 100 | 81 | 81 | 55 | 35 | 100 | 76 | 48 | 
B2 | 0 | 0 | 0 | 4 | 63 | 70 | 71 | 77 | 76 | 82 | 100 | 100 | 81 | 82 | 100 | 99 | 90 | 900
